Experimental data reported in the Human Domainome abundance scans (Beltran et al. 2025).
± gives the uncertainty stated by the source.

B1: Dystrobrevin alpha, residues 235 to 294; numbered along this chain, Q9Y4J8 (parent)
chain: ENVFHPVECSYCHSESMMGFRYRCQQCHNYQLCQDCFWRGHAGGSHSNQHQMKEYTSWKS

Variants of: B1
Experiment: abundance fitness (aPCA) (normalised: wild type 0, dead -1); higher = more abundant; growth selection in yeast, the domain comes from the species named
Conditions: Homo sapiens

| Variant | abundance fitness |
| --- | --- |
| ENVFHPVECSYCHSESMMGFRYRCHQCHNYQLCQDCFWRGHAGGSHSNQHQMKEYTSWKS [Q25H] | -0.193 ± 0.16 |
| ENVFHPVECSYCHSESMMGFRYRCYQCHNYQLCQDCFWRGHAGGSHSNQHQMKEYTSWKS [Q25Y] | -0.327 ± 0.087 |
| ENVFHPVECSYCHSESMMGFRYRCNQCHNYQLCQDCFWRGHAGGSHSNQHQMKEYTSWKS [Q25N] | -0.128 ± 0.095 |
| ENVFHPVECSYCHSESMMGFRYRCPQCHNYQLCQDCFWRGHAGGSHSNQHQMKEYTSWKS [Q25P] | -0.426 ± 0.078 |
| ENVFHPVECSYCHSESMMGFRYRCWQCHNYQLCQDCFWRGHAGGSHSNQHQMKEYTSWKS [Q25W] | -0.662 ± 0.11 |
| ENVFHPVECSYCHSESMMGFRYRCLQCHNYQLCQDCFWRGHAGGSHSNQHQMKEYTSWKS [Q25L] | -0.026 ± 0.053 |
| ENVFHPVECSYCHSESMMGFRYRCSQCHNYQLCQDCFWRGHAGGSHSNQHQMKEYTSWKS [Q25S] | -0.159 ± 0.042 |
| ENVFHPVECSYCHSESMMGFRYRCKQCHNYQLCQDCFWRGHAGGSHSNQHQMKEYTSWKS [Q25K] | -0.003 ± 0.066 |
| ENVFHPVECSYCHSESMMGFRYRCGQCHNYQLCQDCFWRGHAGGSHSNQHQMKEYTSWKS [Q25G] | -0.202 ± 0.052 |
| ENVFHPVECSYCHSESMMGFRYRCRQCHNYQLCQDCFWRGHAGGSHSNQHQMKEYTSWKS [Q25R] | -0.158 ± 0.052 |
| ENVFHPVECSYCHSESMMGFRYRCVQCHNYQLCQDCFWRGHAGGSHSNQHQMKEYTSWKS [Q25V] | 0.019 ± 0.048 |
| ENVFHPVECSYCHSESMMGFRYRCEQCHNYQLCQDCFWRGHAGGSHSNQHQMKEYTSWKS [Q25E] | 0.078 ± 0.064 |
| ENVFHPVECSYCHSESMMGFRYRCMQCHNYQLCQDCFWRGHAGGSHSNQHQMKEYTSWKS [Q25M] | 0.061 ± 0.091 |
| ENVFHPVECSYCHSESMMGFRYRCFQCHNYQLCQDCFWRGHAGGSHSNQHQMKEYTSWKS [Q25F] | -0.325 ± 0.12 |
| ENVFHPVECSYCHSESMMGFRYRCTQCHNYQLCQDCFWRGHAGGSHSNQHQMKEYTSWKS [Q25T] | -0.004 ± 0.072 |
| ENVFHPVECSYCHSESMMGFRYRCIQCHNYQLCQDCFWRGHAGGSHSNQHQMKEYTSWKS [Q25I] | -0.208 ± 0.13 |
| ENVFHPVECSYCHSESMMGFRYRCQQLHNYQLCQDCFWRGHAGGSHSNQHQMKEYTSWKS [C27L] | -0.998 ± 0.14 |
| ENVFHPVECSYCHSESMMGFRYRCQQPHNYQLCQDCFWRGHAGGSHSNQHQMKEYTSWKS [C27P] | -0.578 ± 0.15 |
| ENVFHPVECSYCHSESMMGFRYRCQQAHNYQLCQDCFWRGHAGGSHSNQHQMKEYTSWKS [C27A] | -0.727 ± 0.068 |
| ENVFHPVECSYCHSESMMGFRYRCQQQHNYQLCQDCFWRGHAGGSHSNQHQMKEYTSWKS [C27Q] | -0.943 ± 0.18 |
| ENVFHPVECSYCHSESMMGFRYRCQQKHNYQLCQDCFWRGHAGGSHSNQHQMKEYTSWKS [C27K] | -0.745 ± 0.09 |
| ENVFHPVECSYCHSESMMGFRYRCQQFHNYQLCQDCFWRGHAGGSHSNQHQMKEYTSWKS [C27F] | -0.434 ± 0.17 |
| ENVFHPVECSYCHSESMMGFRYRCQQEHNYQLCQDCFWRGHAGGSHSNQHQMKEYTSWKS [C27E] | -0.717 ± 0.089 |

| Variant | abundance fitness |
| --- | --- |
| ENVFHPVECSYCHSESMMGFRYRCQQDHNYQLCQDCFWRGHAGGSHSNQHQMKEYTSWKS [C27D] | -0.667 ± 0.13 |
| ENVFHPVECSYCHSESMMGFRYRCQQHHNYQLCQDCFWRGHAGGSHSNQHQMKEYTSWKS [C27H] | -0.814 ± 0.39 |
| ENVFHPVECSYCHSESMMGFRYRCQQMHNYQLCQDCFWRGHAGGSHSNQHQMKEYTSWKS [C27M] | -0.814 ± 0.12 |
| ENVFHPVECSYCHSESMMGFRYRCQQNHNYQLCQDCFWRGHAGGSHSNQHQMKEYTSWKS [C27N] | -0.841 ± 0.19 |
| ENVFHPVECSYCHSESMMGFRYRCQLCHNYQLCQDCFWRGHAGGSHSNQHQMKEYTSWKS [Q26L] | -0.287 ± 0.087 |
| ENVFHPVECSYCHSESMMGFRYRCQECHNYQLCQDCFWRGHAGGSHSNQHQMKEYTSWKS [Q26E] | -0.058 ± 0.083 |
| ENVFHPVECSYCHSESMMGFRYRCQRCHNYQLCQDCFWRGHAGGSHSNQHQMKEYTSWKS [Q26R] | -0.232 ± 0.05 |
| ENVFHPVECSYCHSESMMGFRYRCQWCHNYQLCQDCFWRGHAGGSHSNQHQMKEYTSWKS [Q26W] | -0.498 ± 0.1 |
| ENVFHPVECSYCHSESMMGFRYRCQGCHNYQLCQDCFWRGHAGGSHSNQHQMKEYTSWKS [Q26G] | -0.277 ± 0.058 |
| ENVFHPVECSYCHSESMMGFRYRCQHCHNYQLCQDCFWRGHAGGSHSNQHQMKEYTSWKS [Q26H] | -0.315 ± 0.093 |
| ENVFHPVECSYCHSESMMGFRYRCQICHNYQLCQDCFWRGHAGGSHSNQHQMKEYTSWKS [Q26I] | 0.011 ± 0.091 |
| ENVFHPVECSYCHSESMMGFRYRCQVCHNYQLCQDCFWRGHAGGSHSNQHQMKEYTSWKS [Q26V] | 0.273 ± 0.081 |
| ENVFHPVECSYCHSESMMGFRYRCQFCHNYQLCQDCFWRGHAGGSHSNQHQMKEYTSWKS [Q26F] | -0.283 ± 0.2 |
| ENVFHPVECSYCHSESMMGFRYRCQACHNYQLCQDCFWRGHAGGSHSNQHQMKEYTSWKS [Q26A] | 0.006 ± 0.079 |
| ENVFHPVECSYCHSESMMGFRYRCQDCHNYQLCQDCFWRGHAGGSHSNQHQMKEYTSWKS [Q26D] | 0.341 ± 0.085 |
| ENVFHPVECSYCHSESMMGFRYRCQSCHNYQLCQDCFWRGHAGGSHSNQHQMKEYTSWKS [Q26S] | -0.024 ± 0.054 |
| ENVFHPVECSYCHSESMMGFRYRCQPCHNYQLCQDCFWRGHAGGSHSNQHQMKEYTSWKS [Q26P] | -0.545 ± 0.11 |
| ENVFHPVECSYCHSESMMGFRYRCQCCHNYQLCQDCFWRGHAGGSHSNQHQMKEYTSWKS [Q26C] | -0.301 ± 0.11 |
| ENVFHPVECSYCHSESMMGFRYRCQNCHNYQLCQDCFWRGHAGGSHSNQHQMKEYTSWKS [Q26N] | 0.022 ± 0.065 |
| ENVFHPVECSYCHSESMMGFRYRCQTCHNYQLCQDCFWRGHAGGSHSNQHQMKEYTSWKS [Q26T] | 0.012 ± 0.088 |
| ENVFHPVECSYCHSESMMGFRYRCQKCHNYQLCQDCFWRGHAGGSHSNQHQMKEYTSWKS [Q26K] | -0.288 ± 0.13 |
| ENVFHPVECSYCHSESMMGFRYRCQMCHNYQLCQDCFWRGHAGGSHSNQHQMKEYTSWKS [Q26M] | -0.355 ± 0.086 |
